Experimental data: US20250361312A1
Read-outs that look alike come from different tables or passages of the source.

Legend:
[1] = target: human OX40 receptor, cell-expressed (DO11.10-hOX40) (human) (UniProt P43489); assay: cell-based or functional assay
[2] = target: human OX40 receptor, cell-expressed (DO11.10-hOX40) (human) (UniProt P43489); assay: cell-based or functional assay; remark: listed apart in the source
[3] = target: human OX40 receptor, cell-expressed (DO11.10-hOX40) (human) (UniProt P43489); assay: cell-based or functional assay; remark: listed apart in the source
[4] = target: human OX40 receptor, cell-expressed (DO11.10-hOX40) (human) (UniProt P43489); assay: cell-based or functional assay; remark: listed apart in the source
[5] = target: human OX40 receptor, cell-expressed (DO11.10-hOX40) (human) (UniProt P43489); assay: flow cytometry on DO11.10-hOX40 cells
[6] = target: cynomolgus OX40 receptor, cell-expressed (DO11.10-cOX40) (cynomolgus); assay: flow cytometry on DO11.10-cOX40 cells
cynomolgus OX40 receptor, cell-expressed (DO11.10-cOX40) (cynomolgus), sequence (P43489 other isoform, or with tags, fused parts or gaps): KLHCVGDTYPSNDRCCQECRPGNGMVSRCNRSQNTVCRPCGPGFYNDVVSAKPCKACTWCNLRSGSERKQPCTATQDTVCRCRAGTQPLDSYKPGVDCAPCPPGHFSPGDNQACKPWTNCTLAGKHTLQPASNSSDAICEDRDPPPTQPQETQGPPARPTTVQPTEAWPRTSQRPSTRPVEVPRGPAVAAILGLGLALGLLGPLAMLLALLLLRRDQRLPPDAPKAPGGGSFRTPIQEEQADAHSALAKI

human OX40 receptor, cell-expressed (DO11.10-hOX40) (human), sequence (P43489 29-277): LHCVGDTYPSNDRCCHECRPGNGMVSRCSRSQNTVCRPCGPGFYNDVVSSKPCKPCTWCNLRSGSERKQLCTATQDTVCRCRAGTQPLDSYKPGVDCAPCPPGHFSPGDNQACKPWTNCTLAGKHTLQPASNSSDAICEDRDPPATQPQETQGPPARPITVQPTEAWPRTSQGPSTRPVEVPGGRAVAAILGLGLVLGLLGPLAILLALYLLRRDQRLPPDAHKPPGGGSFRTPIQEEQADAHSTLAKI

Row | EC50 of IL-2 release, Xlink (anti-hCH2) [1] [nM] | Max response, Xlink (anti-hCH2) [1] [mIL-2 pg/ml] | EC50 of IL-2 release, Xlink (anti-hCH2) [2] [nM] | Max response, Xlink (anti-hCH2) [2] [mIL-2 pg/ml] | EC50 of IL-2 release, HPAC cells present, Xlink (anti-hCH2) [3] [nM] | EC50 of IL-2 release, Xlink (anti-hCH2) [3] [nM] | Max response, HPAC cells present, Xlink (anti-hCH2) [3] [mIL-2 pg/ml] | Max response, Xlink (anti-hCH2) [3] [mIL-2 pg/ml] | EC50 of IL-2 release, Xlink (anti-hCH2) [4] [nM] | Max response, Xlink (anti-hCH2) [4] [mIL-2 pg/ml] | EC50 of IL-2 release, crosslinked (anti-human CH2 mAb) [3] [nM] | Max response, crosslinked [3] [hIL-2 pg/ml] | EC50 [5] [nM] | EC50 [6] [nM] | Substance
1 | 0.196 | 7200 | 0.14 | 24500 | 0.228 | 0.199 | 14800 | 21900 | 0.000153 | 25000 | – | – | – | – | G1/11D4 (antibody)
2 | – | – | – | – | – | – | – | – | – | – | 0.0493 | 26700 | 0.814 | 0.213 | G1AA/11D4 (antibody)
